In patent US20250076311A1 (Chugai, published 2025):
Residue numbers refer to the chain shown, from its start. Names may count otherwise.

What was measured:
[1] = target: T1, human FcγRIIb constitutively expressed on MDCK cells (human, UniProt P31994 43-310); experiment: cell-based or functional assay
T1 sequence (looked up): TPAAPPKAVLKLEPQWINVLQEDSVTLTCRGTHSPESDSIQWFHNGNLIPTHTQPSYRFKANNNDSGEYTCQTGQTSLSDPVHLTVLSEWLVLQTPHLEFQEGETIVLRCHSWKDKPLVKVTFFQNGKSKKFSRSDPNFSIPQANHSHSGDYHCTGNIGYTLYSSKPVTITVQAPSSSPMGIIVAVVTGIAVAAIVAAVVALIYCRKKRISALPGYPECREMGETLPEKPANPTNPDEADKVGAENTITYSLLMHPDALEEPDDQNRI

[2] = target: T2, soluble mouse FcγRII, His-tagged (mouse, UniProt P08101 30-210, limits assumed); experiment: SPR, mouse FcγRII captured via His-tag, antigen-antibody complex injected, pH 7.4, 25 C
T2 construct: Captured on the chip through an anti-His antibody
T2 sequence (looked up): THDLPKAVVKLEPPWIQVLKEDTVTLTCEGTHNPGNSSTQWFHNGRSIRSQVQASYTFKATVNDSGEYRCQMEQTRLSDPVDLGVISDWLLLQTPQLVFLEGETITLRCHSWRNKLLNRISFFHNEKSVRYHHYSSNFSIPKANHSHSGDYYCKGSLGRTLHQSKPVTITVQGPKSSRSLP
Method in brief: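 Biacore T200; His-tagged soluble FcγRII captured on an anti-His antibody chip, then antibody–antigen complexes injected. Running buffer 20 mM ACES, 150 mM NaCl, 1.2 mM CaCl₂, 0.05% Tween 20, pH 7.4; regeneration with 10 mM glycine-HCl pH 1.5; all at 25° C.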

[3] = target: T3, cynomolgus monkey FcγRIIIaS extracellular domain with C-terminal His-tag (cynomolgus monkey, UniProt Q8SPW2 21-206 at identity 1.00)); experiment: SPR, antibody captured, FcγR analyte
T3 construct: also called cyno FcgRIIIaS; cynoFcγRIIIaS
T3 chain: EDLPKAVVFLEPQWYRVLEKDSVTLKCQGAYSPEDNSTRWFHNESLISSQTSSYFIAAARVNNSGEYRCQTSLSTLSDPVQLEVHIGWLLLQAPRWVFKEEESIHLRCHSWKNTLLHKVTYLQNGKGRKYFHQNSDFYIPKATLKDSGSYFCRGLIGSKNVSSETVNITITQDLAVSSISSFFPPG

[4] = target: T4, human FcγRIIaR extracellular domain with C-terminal His-tag (human, UniProt P12318 34-217); experiment: SPR, antibody captured, FcγR analyte
T4 construct: also called human FcgRIIaR; FcγRIIa (type R)
T4 chain: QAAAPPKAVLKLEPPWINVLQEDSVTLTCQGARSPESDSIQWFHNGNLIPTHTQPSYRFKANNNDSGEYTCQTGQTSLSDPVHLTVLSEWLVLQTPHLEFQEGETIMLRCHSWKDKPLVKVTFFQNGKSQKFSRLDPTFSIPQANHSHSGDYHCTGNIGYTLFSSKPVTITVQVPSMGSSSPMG

[5] = target: T5, human FcγRIIaH extracellular domain, C-terminal His-tag (human, UniProt P12318 34-217); experiment: SPR, anti-kappa capture; KD(SG1)/KD(variant)
T5 construct: also called FcgRIIaH; human FcγRIIa (type H)
T5 sequence: T4 chain with R134H

[6] = target: T6, human FcγRIIIaV extracellular domain with C-terminal His-tag (human, UniProt P08637 17-208); experiment: SPR, KD(SG1)/KD(variant)
T6 construct: also called human FcgRIIIaV
Description: (§1) The kinetic analysis of interactions between these antibodies and FcγR was carried out using BIACORE® T200 or BIACORE® 4000 (GE Healthcare). HBS-EP+ (GE Healthcare) was used as the running buffer, and the measurement temperature was set to 25° C. […] After the measurement, the antibody captured on the chip was washed off by allowing reaction with 10 mM glycine-HCl, pH1.5 and 25 mM NaOH so that the chip was regenerated and used repeatedly. The sensorgrams obtained as measurement results were analyzed by the 1:1 Langmuir binding model using the BIACORE® Evaluation Software to calculate the binding rate constant ka (L/mol/s) and dissociation rate constant kd (1/s), and the dissociation constant KD (mol/L) was calculated from these values. […] Regarding such interactions, KD values were calculated using the following 1:1 binding model described in BIACORE® T100 Software Handbook BR1006-48 Edition AE.

[7] = target: T3, cynomolgus monkey FcγRIIIaS …; experiment: SPR, KD(SG1)/KD(variant)
Description: as §1

[8] = target: T7, cynomolgus monkey FcγRIIa1 extracellular domain with C-terminal His-tag (cynomolgus monkey); experiment: SPR, KD(SG1)/KD(variant)
T7 construct: also called cyno FcgRIIa1; cynoFcγRIIa1
T7 chain: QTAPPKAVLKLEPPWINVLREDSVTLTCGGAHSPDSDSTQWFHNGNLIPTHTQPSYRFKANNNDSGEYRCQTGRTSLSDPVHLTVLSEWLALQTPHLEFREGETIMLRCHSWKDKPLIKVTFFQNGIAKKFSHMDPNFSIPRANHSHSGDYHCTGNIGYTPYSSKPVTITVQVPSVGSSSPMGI
Description: as §1

[9] = target: T8, cynomolgus monkey FcγRIIa2 extracellular domain with C-terminal His-tag (cynomolgus monkey); experiment: SPR, KD(SG1)/KD(variant)
T8 construct: also called cyno FcgRIIa2; cynoFcγRIIa2
T8 chain: T7 chain with P95T, T121A, I127K, A128S, K130N, D135N, R142Q
Description: as §1

[10] = target: T9, cynomolgus monkey FcγRIIb extracellular domain, His-tagged (cynomolgus monkey); experiment: SPR Biacore, antibody captured, FcgR analyte
T9 construct: also called cyno FcγRIIb; cynoFcγRIIb; not shown: C-terminal His-tag
T9 chain: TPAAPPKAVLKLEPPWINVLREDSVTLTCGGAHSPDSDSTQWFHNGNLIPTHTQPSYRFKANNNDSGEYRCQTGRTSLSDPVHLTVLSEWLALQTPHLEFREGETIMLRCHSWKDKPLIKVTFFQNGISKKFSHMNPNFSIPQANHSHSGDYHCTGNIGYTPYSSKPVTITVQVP

[11] = target: T10, cynomolgus monkey FcγRIIa2 extracellular domain, His-tagged (cynomolgus monkey); experiment: SPR Biacore, antibody captured, FcgR analyte
T10 construct: also called cyno FcγRIIa2; cynoFcgRIIa2; not shown: C-terminal His-tag
T10 chain: T7 chain with P95T, T121A, I127K, A128S, K130N, D135N, R142Q

[12] = target: T11, human FcγRIIIaV extracellular domain, His-tagged (human, UniProt P08637 17-208); experiment: SPR Biacore, antibody captured, FcgR analyte
T11 construct: also called FcgRIIIaV; not shown: C-terminal His-tag

[13] = target: T12, cynomolgus monkey FcγRIIa3 extracellular domain, His-tagged (cynomolgus monkey); experiment: SPR Biacore, KD(SG1)/KD(variant)
T12 construct: also called cyno FcγRIIa3; cynoFcgRIIa3; not shown: C-terminal His-tag
T12 chain: T7 chain with P95T, T121A, A128S, H133P, D135N

[14] = target: T13, human FcγRIIaR extracellular domain, His-tagged (human, UniProt P12318 34-217); experiment: SPR Biacore, KD(SG1)/KD(variant)
T13 construct: also called human FcγRIIa (type R); FcgRIIaR; not shown: C-terminal His-tag
T13 chain: T4 chain

[15] = target: T14, human FcγRIIb extracellular domain, His-tagged (human, UniProt P31994 43-217); experiment: SPR Biacore, KD(SG1)/KD(variant)
T14 construct: also called FcgRIIb (human); not shown: C-terminal His-tag
T14 sequence: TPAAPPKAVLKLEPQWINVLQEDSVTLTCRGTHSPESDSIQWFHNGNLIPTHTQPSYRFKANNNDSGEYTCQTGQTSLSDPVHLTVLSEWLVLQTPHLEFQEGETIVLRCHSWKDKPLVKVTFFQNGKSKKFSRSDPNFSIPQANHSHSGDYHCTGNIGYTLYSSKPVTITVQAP

[16] = target: T10, cynomolgus monkey FcγRIIa2 …; experiment: SPR Biacore, KD(SG1)/KD(variant)

T11 sequence (P08637 17-208 F176V): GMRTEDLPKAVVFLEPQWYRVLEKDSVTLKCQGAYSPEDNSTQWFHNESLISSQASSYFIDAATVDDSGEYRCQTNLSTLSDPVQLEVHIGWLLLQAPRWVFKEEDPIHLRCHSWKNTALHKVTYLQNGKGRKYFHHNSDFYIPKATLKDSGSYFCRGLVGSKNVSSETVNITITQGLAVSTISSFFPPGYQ
T6 sequence (P08637 17-208 F176V): as above

B1: MS1032LO06-SG1 (antibody, human IgG1, kappa)
heavy: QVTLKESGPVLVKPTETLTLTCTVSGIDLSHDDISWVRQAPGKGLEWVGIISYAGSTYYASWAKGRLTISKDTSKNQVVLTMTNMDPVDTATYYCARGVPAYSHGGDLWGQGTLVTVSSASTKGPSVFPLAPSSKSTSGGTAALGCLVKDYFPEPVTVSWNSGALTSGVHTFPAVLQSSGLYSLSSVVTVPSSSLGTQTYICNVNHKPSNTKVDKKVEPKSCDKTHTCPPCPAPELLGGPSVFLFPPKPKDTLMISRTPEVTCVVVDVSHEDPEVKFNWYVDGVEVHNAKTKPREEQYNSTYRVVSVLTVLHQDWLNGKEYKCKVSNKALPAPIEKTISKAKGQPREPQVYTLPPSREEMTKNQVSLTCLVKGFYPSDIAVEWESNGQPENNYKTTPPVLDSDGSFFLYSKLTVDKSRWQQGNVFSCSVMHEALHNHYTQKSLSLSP
light: DIVMTQSPATLSLSPGERATLSCTSSQSVYHANWLSWFQQKPGQPPKLLIYWASTLAYGVPSRFSGSGSGTDFTLTISSLQPEDAATYYCAGGYGGGRYAFGQGTKVEIKRTVAAPSVFIFPPSDEQLKSGTASVVCLLNNFYPREAKVQWKVDNALQSGNSQESVTEQDSKDSTYSLSSTLTLSKADYEKHKVYACEVTHQGLSSPVTKSFNRGEC
notes: also called M103205H795-SG1; copies: 2 + 2
[1]
  celluar uptake (labelled human latent myostatin taken up as antigen-antibody complex): 1 relative to SG1 = 1.00
[2]
  biacore IC binding (relative, SG1 = 1.00): 1 relative to SG1
[3]
  Kd: 260 nM
[4]
  Kd: 10000 nM

B2: MS103240H795-TT91/M103202L1045-SK1 (antibody)
heavy: QVQLVESGGGLVQPGGSLRLSCAVSGIDLSHDDISWVRQAPGKGLEWVSIISYAGSTYYASWAKGRLTISKDTSKNQVVLTMTNMDPVDTATYYCARGVPAYSHGGDLWGQGTLVTVSSASTKGPSVFPLAPSSKSTSGGTAALGCLVKDYFPEPVTVSWNSGALTSGVHTFPAVLQSSGLYSLSSVVTVPSSSLGTQTYICNVNHKPSNTKVDKKVEPKSCDKTHTCPPCPAPEYLGGDSVFLFPPKPKDVLMISRTPEVTCVVIDVSHEDPEVKFNWYVDGVEVHNAKTKPREEQYNSTYRVVSVLPVLHRDWLNGKEYKCKVSNKALPKPIEKTISKAKGQRREPQVYTLPPSREEMTKNQVSLTCLVKGFYPSDIAVEWESNGQPENNYKTTPPVLDSDGSFFLYSKLTVDKSRWQQGNVFSCSVLHEALHAHTTRKELSLSP
light: B1 light with S25T, A32E
[5]
  KD fold (SG1 = 1): 0.02 fold

B3: MS1032LO06-PK57 (antibody, human IgG1, kappa)
heavy: QVTLKESGPVLVKPTETLTLTCTVSGIDLSHDDISWVRQAPGKGLEWVGIISYAGSTYYASWAKGRLTISKDTSKNQVVLTMTNMDPVDTATYYCARGVPAYSHGGDLWGQGTLVTVSSASTKGPSVFPLAPSSKSTSGGTAALGCLVKDYFPEPVTVSWNSGALTSGVHTFPAVLQSSGLYSLSSVVTVPSSSLGTQTYICNVNHKPSNTKVDKKVEPKSCDKTHTCPPCPAPELLNGPSVFLFPPKPKDTLMISRTPEVTCVVVDVSDEDPEVKFNWYVDGVEVHNAKTKPREEQYNSTYRVVSVLTVLHRDWLNGKEYKCKVSNKALPKPIEKTISKAKGQPREPQVYTLPPSREEMTKNQVSLTCLVKGFYPSDIAVEWESRGQPENNYKTTPPVLDSDGSFFLYSKLTVRKSRWQQGNVFSCSVMHEALHNHYTQKSLSLSP
light: B1 light
notes: MY201 with Q311R/N384R/D413R; also called MS103205H795-PK57; M103205H795-MY57; copies: 2 + 2
[6]
  KD fold (SG1 = 1): 0.07 fold
[7]
  KD fold (SG1 = 1): 0.06 fold
[8]
  KD fold (SG1 = 1): 2.3 fold
[9]
  KD fold (SG1 = 1): 2 fold
[3]
  Kd: 4300 nM
[4]
  Kd: 22000 nM

B4: M103205H795-MY015/M103202L889-SK1 (antibody, human IgG1, kappa, name in EU numbering)
heavy: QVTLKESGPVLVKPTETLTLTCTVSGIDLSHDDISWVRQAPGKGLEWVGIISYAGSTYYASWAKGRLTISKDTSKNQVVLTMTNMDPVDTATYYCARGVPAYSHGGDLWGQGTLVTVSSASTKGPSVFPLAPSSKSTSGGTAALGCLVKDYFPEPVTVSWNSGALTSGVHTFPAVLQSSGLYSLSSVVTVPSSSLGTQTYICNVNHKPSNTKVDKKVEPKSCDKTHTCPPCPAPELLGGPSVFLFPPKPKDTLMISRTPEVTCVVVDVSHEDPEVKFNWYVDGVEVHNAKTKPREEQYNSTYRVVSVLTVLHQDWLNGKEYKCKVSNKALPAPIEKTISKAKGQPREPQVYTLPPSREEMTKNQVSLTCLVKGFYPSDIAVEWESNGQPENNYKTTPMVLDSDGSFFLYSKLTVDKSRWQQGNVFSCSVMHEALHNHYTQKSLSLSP
light: B1 light
notes: Substitution introduced into M103205H795-SG1; EU numbering
[10]
  Kd: 600 nM

B5: M103205H795-MY043/M103202L889-SK1 (antibody, human IgG1, kappa, name in EU numbering)
heavy: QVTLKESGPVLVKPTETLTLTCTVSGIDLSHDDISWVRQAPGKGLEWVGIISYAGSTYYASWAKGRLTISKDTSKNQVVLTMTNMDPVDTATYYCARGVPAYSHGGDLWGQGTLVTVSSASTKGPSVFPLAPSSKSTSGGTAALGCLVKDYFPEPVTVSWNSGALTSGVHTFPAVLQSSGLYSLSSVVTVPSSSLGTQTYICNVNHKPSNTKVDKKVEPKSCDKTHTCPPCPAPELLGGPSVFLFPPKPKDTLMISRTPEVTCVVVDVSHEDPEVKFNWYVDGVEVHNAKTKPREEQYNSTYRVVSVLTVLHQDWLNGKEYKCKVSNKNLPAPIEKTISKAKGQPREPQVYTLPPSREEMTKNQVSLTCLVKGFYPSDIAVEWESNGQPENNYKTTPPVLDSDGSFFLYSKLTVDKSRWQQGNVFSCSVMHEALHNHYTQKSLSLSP
light: B1 light
notes: as for B4
[11]
  Kd: 6100 nM
[12]
  Kd: 1200 nM
[13]
  KD fold (SG1 = 1): 0.5 fold

B6: M103205H795-MY038/M103202L889-SK1 (antibody, human IgG1, kappa, name in EU numbering)
heavy: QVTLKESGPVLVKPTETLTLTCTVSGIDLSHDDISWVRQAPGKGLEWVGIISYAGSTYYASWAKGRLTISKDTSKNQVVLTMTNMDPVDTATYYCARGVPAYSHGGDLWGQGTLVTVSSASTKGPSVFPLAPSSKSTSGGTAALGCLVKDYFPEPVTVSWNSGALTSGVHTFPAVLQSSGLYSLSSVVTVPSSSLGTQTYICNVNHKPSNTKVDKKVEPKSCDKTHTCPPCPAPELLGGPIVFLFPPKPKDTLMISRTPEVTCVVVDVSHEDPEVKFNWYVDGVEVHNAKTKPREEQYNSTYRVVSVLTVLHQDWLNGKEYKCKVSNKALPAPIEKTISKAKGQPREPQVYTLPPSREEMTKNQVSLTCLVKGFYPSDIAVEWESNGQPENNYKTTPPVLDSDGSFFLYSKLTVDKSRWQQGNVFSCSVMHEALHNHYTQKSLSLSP
light: B1 light
notes: as for B4
[12]
  Kd: 550 nM

B7: MS103240H795-TT68/M103202L1045-SK1 (antibody)
heavy: B2 heavy with Y236L, I266V, R345P, D415K, L430M, T438Y
light: B1 light with S25T, A32E
notes: copies: 2 + 2
[5]
  KD fold (SG1 = 1): 0.006 fold

B8: M103205H795-MY017/M103202L889-SK1 (antibody, human IgG1, kappa, name in EU numbering)
heavy: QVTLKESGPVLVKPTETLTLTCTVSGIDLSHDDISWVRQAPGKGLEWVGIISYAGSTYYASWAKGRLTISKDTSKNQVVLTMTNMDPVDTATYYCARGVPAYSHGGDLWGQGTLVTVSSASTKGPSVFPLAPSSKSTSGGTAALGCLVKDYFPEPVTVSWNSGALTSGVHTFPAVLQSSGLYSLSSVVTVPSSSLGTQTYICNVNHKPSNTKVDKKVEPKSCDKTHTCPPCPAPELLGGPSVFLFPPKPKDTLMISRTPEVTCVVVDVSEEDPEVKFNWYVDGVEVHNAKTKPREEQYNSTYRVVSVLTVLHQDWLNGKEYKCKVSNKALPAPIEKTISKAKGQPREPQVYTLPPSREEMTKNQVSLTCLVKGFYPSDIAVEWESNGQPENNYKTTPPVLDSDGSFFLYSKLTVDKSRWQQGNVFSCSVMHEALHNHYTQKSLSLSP
light: B1 light
notes: as for B4
[10]
  Kd: 680 nM
[14]
  KD fold (SG1 = 1): 3.9 fold
[15]
  KD fold (SG1 = 1): 4.5 fold
[16]
  KD fold (SG1 = 1): 1.6 fold
[13]
  KD fold (SG1 = 1): 3.1 fold
